These are literature values, as cited in article PMC4768738.

The target in one data set is ankyrin (Homo sapiens) (UniProt P16157).
Another data set addresses p55 (Homo sapiens) (UniProt Q00013).
Chain of UniProt Q00013 (Q00013 2-466): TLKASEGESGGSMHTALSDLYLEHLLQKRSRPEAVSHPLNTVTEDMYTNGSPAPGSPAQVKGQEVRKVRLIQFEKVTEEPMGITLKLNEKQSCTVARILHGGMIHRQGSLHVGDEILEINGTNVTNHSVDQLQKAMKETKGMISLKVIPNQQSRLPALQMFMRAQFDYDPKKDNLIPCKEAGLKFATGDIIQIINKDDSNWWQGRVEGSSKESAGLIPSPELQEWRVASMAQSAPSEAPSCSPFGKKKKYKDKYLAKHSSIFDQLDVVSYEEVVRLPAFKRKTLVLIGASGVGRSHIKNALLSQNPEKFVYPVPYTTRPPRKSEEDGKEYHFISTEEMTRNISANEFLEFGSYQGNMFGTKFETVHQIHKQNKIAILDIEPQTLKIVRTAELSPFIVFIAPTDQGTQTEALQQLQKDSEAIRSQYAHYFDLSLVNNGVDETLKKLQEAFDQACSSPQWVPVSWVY

Chain of UniProt P16157 (P16157 whole entry): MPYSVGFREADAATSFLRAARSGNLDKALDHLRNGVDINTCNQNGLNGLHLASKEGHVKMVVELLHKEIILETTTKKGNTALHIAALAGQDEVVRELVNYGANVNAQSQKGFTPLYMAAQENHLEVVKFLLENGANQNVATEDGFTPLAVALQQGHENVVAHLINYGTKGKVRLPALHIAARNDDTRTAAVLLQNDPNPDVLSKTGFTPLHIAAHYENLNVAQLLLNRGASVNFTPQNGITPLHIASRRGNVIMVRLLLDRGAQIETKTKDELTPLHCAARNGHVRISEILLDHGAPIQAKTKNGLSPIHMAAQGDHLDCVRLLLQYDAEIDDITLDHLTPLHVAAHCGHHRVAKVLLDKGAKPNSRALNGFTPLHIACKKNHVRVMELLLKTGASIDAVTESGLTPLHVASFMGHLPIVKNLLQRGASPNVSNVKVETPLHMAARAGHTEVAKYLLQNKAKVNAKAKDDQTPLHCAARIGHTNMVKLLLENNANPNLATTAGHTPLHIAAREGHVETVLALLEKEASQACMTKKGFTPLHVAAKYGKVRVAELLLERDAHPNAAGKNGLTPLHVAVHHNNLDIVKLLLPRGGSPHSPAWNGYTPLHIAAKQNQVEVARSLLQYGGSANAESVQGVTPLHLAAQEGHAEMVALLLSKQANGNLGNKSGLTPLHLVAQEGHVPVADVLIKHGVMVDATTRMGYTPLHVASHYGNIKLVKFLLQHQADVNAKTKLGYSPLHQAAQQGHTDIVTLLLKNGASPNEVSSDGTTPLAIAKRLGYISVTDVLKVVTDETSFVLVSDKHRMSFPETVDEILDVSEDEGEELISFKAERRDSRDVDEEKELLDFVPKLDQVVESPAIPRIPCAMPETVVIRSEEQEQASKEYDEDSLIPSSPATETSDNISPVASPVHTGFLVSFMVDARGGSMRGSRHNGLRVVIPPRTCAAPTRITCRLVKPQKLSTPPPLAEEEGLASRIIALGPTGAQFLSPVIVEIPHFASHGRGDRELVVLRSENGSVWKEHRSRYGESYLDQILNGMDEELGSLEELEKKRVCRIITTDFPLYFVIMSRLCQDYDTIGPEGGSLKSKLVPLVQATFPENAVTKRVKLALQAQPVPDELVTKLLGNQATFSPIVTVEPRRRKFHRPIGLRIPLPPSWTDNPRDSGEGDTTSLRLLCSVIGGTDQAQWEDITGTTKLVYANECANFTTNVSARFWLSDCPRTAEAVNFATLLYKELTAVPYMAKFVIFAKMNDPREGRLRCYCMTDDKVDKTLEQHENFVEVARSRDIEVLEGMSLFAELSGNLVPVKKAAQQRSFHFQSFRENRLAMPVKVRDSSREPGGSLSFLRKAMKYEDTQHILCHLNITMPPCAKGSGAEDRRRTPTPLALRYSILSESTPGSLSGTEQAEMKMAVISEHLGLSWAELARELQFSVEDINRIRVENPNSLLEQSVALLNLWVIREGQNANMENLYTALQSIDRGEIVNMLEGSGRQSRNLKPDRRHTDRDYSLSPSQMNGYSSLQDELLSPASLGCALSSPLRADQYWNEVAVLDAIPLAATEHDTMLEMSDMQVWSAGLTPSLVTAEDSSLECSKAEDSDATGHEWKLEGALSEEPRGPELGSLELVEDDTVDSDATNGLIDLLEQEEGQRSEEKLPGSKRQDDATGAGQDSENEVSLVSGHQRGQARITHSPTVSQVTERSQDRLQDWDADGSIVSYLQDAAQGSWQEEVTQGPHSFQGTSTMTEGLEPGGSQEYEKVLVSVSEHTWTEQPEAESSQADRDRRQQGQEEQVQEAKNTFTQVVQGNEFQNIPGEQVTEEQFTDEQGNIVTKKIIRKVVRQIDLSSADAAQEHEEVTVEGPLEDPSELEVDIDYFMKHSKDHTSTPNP

As to protein 4.2 (from UniProt P16452), the Kd (commonly the constant that tells how readily two partners part at equilibrium) with ankyrin (Homo sapiens) was 100 nM.
Regarding protein 4.1R (from UniProt P11171), the Kd with p55 (Homo sapiens) is 100 nM.
